Target: bovine trypsin (bovine, UniProt P00760 24-246)
Assay: cell-based or functional assay

Chain of bovine trypsin (P00760 24-246): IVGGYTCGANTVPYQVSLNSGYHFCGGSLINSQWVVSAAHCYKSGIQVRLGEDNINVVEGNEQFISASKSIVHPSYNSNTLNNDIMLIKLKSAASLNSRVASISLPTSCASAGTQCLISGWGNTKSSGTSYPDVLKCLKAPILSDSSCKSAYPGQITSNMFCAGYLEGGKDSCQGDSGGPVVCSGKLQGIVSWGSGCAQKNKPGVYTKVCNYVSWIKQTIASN

Trypsin inhibition activity: 13700 TIU/g
B1: native chicken ovomucoid (nOVD) (other)
chain: AEVDCSRFPNATDKEGKDVLVCNKDLRPICGTDGVTYTNDCLLCAYSIEFGTNISKEHDGECKETVPMNCSSYANTTSEDGKVMVLCNRAFNPVCGTDGVTYDNECLLCAHKVEQGASVDKRHDGGCRKELAAVSVDCSEYPKPDCTAEDRPLCGSDNKTYGNKCNFCNAVVESNGTLTLSHFGKC
modifications: complex branched N-linked glycosylation (that includes mannose), as in chicken egg white

Source: patent US20240206509A1 (CLARA FOODS, published 2024)
